Ends that are not written are not given here.
Biological target: T1, RyRP12 peptide (ryanodine receptor 1) RyRP12 (UniProt P21817, also: TAMRA label, position not given here)
T1 chain: KKAVWHKLLSKQ
Assay: fluorescence anisotropy

B1: S100A1 (protein)
chain: MGSELETAMETLINVFHAHSGKEGDKYKLSKKELKDLLQTELSSFLDVQKDADAVDKIMKELDENGDGEVDFQEFVVLVAALTVACNNFFWENS
Kd: 139 nM

Reference: PMC2771873 (2009)
